Values quoted from earlier work, collected in article PMC7855609.

Assays:
Asp38 = Asp38 (UniProt position 104, FKVVFDTGSSN); assay: kinetics; settings: Enzyme turning over the wild-type peptide substrate PTDP (His at P2)
Asp226 = Asp226 (UniProt position 292, CLALVDTGASY); assay: kinetics; settings: Enzyme turning over the wild-type peptide substrate PTDP (His at P2)

Substance: Renin (recombinant human renal renin) (Homo sapiens)
- pKa (Asp38): 5.3
- pKa (Asp226): 6.3
